From the supplement of paper PMC11246515
± gives the standard deviation of the averaged measurements.

Assay: total protein half-life in vivo (active degradation + dilution); higher = more stable protein
[1] = E. coli NCM3722 delta-clpP delta-lon delta-hslV, growth: N-lim chemostat, doubling time 6 h
[2] = E. coli NCM3722 delta-clpP, growth: N-lim chemostat, doubling time 6 h
[3] = E. coli NCM3722 delta-hslV, growth: N-lim chemostat, doubling time 6 h
[4] = E. coli NCM3722 delta-lon, growth: N-lim chemostat, doubling time 6 h
[5] = E. coli NCM3722 delta-smpB, growth: N-lim chemostat, doubling time 6 h
[6] = wild type E. coli NCM3722, growth: C-lim chemostat, doubling time 3 h
[7] = wild type E. coli NCM3722, growth: C-lim chemostat, doubling time 6 h
[8] = wild type E. coli NCM3722, growth: C-lim chemostat, doubling time 12 h
[9] = wild type E. coli NCM3722, growth: N-lim chemostat, doubling time 6 h
[10] = wild type E. coli NCM3722, growth: N-lim chemostat, doubling time 12 h
[11] = wild type E. coli NCM3722, growth: P-lim chemostat, doubling time 6 h
[12] = wild type E. coli NCM3722, growth: P-lim chemostat, doubling time 12 h

Row | Sequence | total protein half-life in vivo [1] [h] | total protein half-life in vivo [2] [h] | total protein half-life in vivo [3] [h] | total protein half-life in vivo [4] [h] | total protein half-life in vivo [5] [h] | total protein half-life in vivo [6] [h] | total protein half-life in vivo [7] [h] | total protein half-life in vivo [8] [h] | total protein half-life in vivo [9] [h] | total protein half-life in vivo [10] [h] | total protein half-life in vivo [11] [h] | total protein half-life in vivo [12] [h]
1 | MGFKCGIVGLPNVGKSTLFNALTKAGIEAANFPFCTIEPNTGVVPMPDPRLDQLAEIVKPQRTLPTTMEFVDIAGLVKGASKGEGLGNQFLTNIRETEAIGHVVRCFENDNIIHVSGKVNPADDIEVINTELALADLDTCERAIHRVQKKAKGGDKDAKAELAVLEKCLPQLENAGMLRALDLSAEEKAAIRYLSFLTLKPTMYIANVNEDGFENNPYLDQVREIAAKEGSVVVPVCAAVEADIAELDDEERDEFMQELGLEEPGLNRVIRAGYKLLNLQTYFTAGVKEVRAWTIPVGATAPQAAGKIHTDFEKGFIRAQTISFEDFITYKGEQGAKEAGKMRAEGKDYIVKDGDVMNFLFNV [P0ABU2] | 3.92 ± 0.14 | 3.74 ± 0.63 | 3.66 ± 0.24 | 4.72 ± 0.67 | 3.69 ± 0.13 | 3.61 ± 0.17 | 4.77 ± 0.28 | 9.13 ± 0.49 | 3.5 ± 0.18 | 5.15 ± 0.31 | 5.12 ± 0.4 | 9.68 ± 0.37
2 | MSDDVALPLEFTDAAANKVKSLIADEDNPNLKLRVYITGGGCSGFQYGFTFDDQVNEGDMTIEKQGVGLVVDPMSLQYLVGGSVDYTEGLEGSRFIVTNPNAKSTCGCGSSFSI [P0ACC3] | 5.22 ± 1.4 |  | 2.03 ± 0.4 | 3.62 ± 0.25 | 1.74 ± 0.059 | 1.62 ± 0.23 | 2.89 ± 0.6 | 3.62 ± 0.69 | 1.71 ± 0.19 | 2.43 ± 0.26 | 2.4 ± 0.14 | 4.84 ± 0.42
3 | MLLNMMCGRQLSAISLCLAVTFAPLFNAQADEPEVIPGDSPVAVSEQGEALPQAQATAIMAGIQPLPEGAAEKARTQIESQLPAGYKPVYLNQLQLLYAARDMQPMWENRDAVKAFQQQLAEVAIAGFQPQFNKWVELLTDPGVNGMARDVVLSDAMMGYLHFIANIPVKGTRWLYSSKPYALATPPLSVINQWQLALDKGQLPTFVAGLAPQHPQYAAMHESLLALLCDTKPWPQLTGKATLRPGQWSNDVPALREILQRTGMLDGGPKITLPGDDTPTDAVVSPSAVTVETAETKPMDKQTTSRSKPAPAVRAAYDNELVEAVKRFQAWQGLGADGAIGPATRDWLNVTPAQRAGVLALNIQRLRLLPTELSTGIMVNIPAYSLVYYQNGNQVLDSRVIVGRPDRKTPMMSSALNNVVVNPPWNVPPTLARKDILPKVRNDPGYLESHGYTVMRGWNSREAIDPWQVDWSTITASNLPFRFQQAPGPRNSLGRYKFNMPSSEAIYLHDTPNHNLFKRDTRALSSGCVRVNKASDLANMLLQDAGWNDKRISDALKQGDTRYVNIRQSIPVNLYYLTAFVGADGRTQYRTDIYNYDLPARSSSQIVSKAEQLIR | 5.42 ± 0.21 | 5.32 ± 1 | 5.764 ± 0.032 | 5.39 ± 0.3 | 4.989 ± 0.017 | 3.03 ± 0.053 | 6.5 ± 0.17 | 12.2 ± 1.1 | 5.57 ± 0.65 | 8.84 ± 0.75 | 4.75 ± 0.52 | 9.2 ± 1.2
4 | MSLSRTQIVNWLTRCGDIFSTESEYLTGLDREIGDADHGLNMNRGFSKVVEKLPAIADKDIGFILKNTGMTLLSSVGGASGPLFGTFFIRAAQATQARQSLTLEELYQMFRDGADGVISRGKAEPGDKTMCDVWVPVVESLRQSSEQNLSVPVALEAASSIAESAAQSTITMQARKGRASYLGERSIGHQDPGATSVMFMMQMLALAAKE | 4.62 ± 0.54 | 4.25 ± 0.72 | 4.36 ± 0.067 | 4.75 ± 0.52 | 4.23 ± 0.14 | 2.93 ± 0.12 | 5.43 ± 0.13 | 9.74 ± 0.25 | 4.432 ± 0.04 | 7.23 ± 0.11 | 4.75 ± 1.6 | 11.8 ± 0.41
5 | MKSLQALFGGTFDPVHYGHLKPVETLANLIGLTRVTIIPNNVPPHRPQPEANSVQRKHMLELAIADKPLFTLDERELKRNAPSYTAQTLKEWRQEQGPDVPLAFIIGQDSLLTFPTWYEYETILDNAHLIVCRRPGYPLEMAQPQYQQWLEDHLTHNPEDLHLQPAGKIYLAETPWFNISATIIRERLQNGESCEDLLPEPVLTYINQQGLYR [P0A752] | 4.39 ± 0.63 |  | 5 ± 0.32 | 5.03 ± 0.38 | 4.2 ± 0.31 | 3.34 ± 0.12 | 4.95 ± 0.23 | 11.3 ± 2.1 | 4.49 | 7.22 ± 0.54 | 5.47 | 8.78 ± 2.9
6 | MKVLVTGATSGLGRNAVEFLCQKGISVRATGRNEAMGKLLEKMGAEFVPADLTELVSSQAKVMLAGIDTLWHCSSFTSPWGTQQAFDLANVRATRRLGEWAVAWGVRNFIHISSPSLYFDYHHHRDIKEDFRPHRFANEFARSKAASEEVINMLSQANPQTRFTILRPQSLFGPHDKVFIPRLAHMMHHYGSILLPHGGSALVDMTYYENAVHAMWLASQEACDKLPSGRVYNITNGEHRTLRSIVQKLIDELNIDCRIRSVPYPMLDMIARSMERLGRKSAKEPPLTHYGVSKLNFDFTLDITRAQEELGYQPVITLDEGIEKTAAWLRDHGKLPR | 6.23 ± 0.075 |  | 6.37 ± 0.24 | 5.88 ± 0.54 | 5.48 ± 0.29 | 2.62 ± 0.47 |  | 9.95 ± 0.97 | 6.14 ± 0.16 | 12.6 ± 0.48 | 5.6 ± 0.61 | 9.9 ± 0.57
7 | MEIREGHNKFYINDKQGKQIAEIVFVPTGENLAIIEHTDVDESLKGQGIGKQLVAKVVEKMRREKRKIIPLCPFAKHEFDKTREYDDIRS |  |  |  |  |  |  |  |  |  | > 16 |  | 12
